Results as given in patent US9434785.

T1: recombinant human OX40L (extracellular domain with FLAG peptide motif and isoleucine zipper motif) (human, UniProt P23510 51-183, biotinylated in the HTRF assays (sites not given))
T1 construct: extracellular domain; It was biotinylated for HTRF and is not described as biotinylated for SPR or the T-cell assay; also called hOX40L; recombinant hOX40L; not shown: FLAG peptide motif and isoleucine zipper motif
T1 sequence (looked up): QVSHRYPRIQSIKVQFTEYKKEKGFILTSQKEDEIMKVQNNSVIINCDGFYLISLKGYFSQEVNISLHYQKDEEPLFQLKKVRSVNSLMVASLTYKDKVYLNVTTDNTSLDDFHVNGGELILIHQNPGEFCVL


Assays:
[1] = biological target: T1, recombinant human OX40L (extracellular …); assay: HTRF ligand/receptor neutralisation; competitor OX40RFc-AF647 on biotinylated hOX40L; mean of three experiments, SEM +/-0.04
Procedure: (§1) Profiling of Fully Human Recombinant Anti-OX40L Antibodies in HTRF Ligand/Receptor Neutralisation Assay In order to determine whether recombinantly expressed fully human purified IgG inhibit human OX40L binding to OX40RFc the following method was carried out. Fully human purified IgG or other inhibitor were tested in order to establish the clone potency as measured by IC$50$ values in the assay. Antibodies recombinantly expressed and purified were titrated by diluting in HTRF assay buffer and 5 μL of this titration transferred to a white 384 well low volume non-binding surface polystyrene plate (Greiner). Biotinylated OX40L was diluted in HTRF assay buffer to a working concentration of 2.4 nM and 5 μL added. OX40RFc directly labelled with AF647 was then diluted to working concentration of 10 nM and 5 μL added. […] Plates were covered, protected from light and incubated at room temperature for 3 hrs prior to reading time resolved fluorescence at 620 nm and 665 nm emission wavelengths using an EnVision plate reader (Perkin Elmer). Data were analysed by calculating delta F as described in Equation 4 and percentage of receptor for each sample according to Equation 5 or in some cases Equation 6. IC$50$ values were determined using GraphPad Prism software by curve fitting using a four-parameter logistic equation (Equation 7) (FIG. 1).

[2] = biological target: T1, recombinant human OX40L (extracellular …); assay: cell-based or functional assay
[3] = biological target: T1, recombinant human OX40L (extracellular …); assay: SPR (ProteOn XPR36), apparent affinity, antibody captured on anti-mouse IgG, hOX40L at 256 nM, 1:1 model, 25 C
Procedure: SPR analysis was carried out using the ProteOn™ XPR36 Array System (BioRad). Anti-mouse IgG (GE Healthcare BR-1008-38) was immobilised on a GLM biosensor surface using amine coupling, the surface was then blocked using 1 M ethanolamine. Test antibodies were captured on this surface and recombinant hOX40L (human and rhesus) were used at a single concentration of 256 nM, binding sensorgrams were double referenced using a buffer injection (i.e. 0 nM) to remove baseline drift and injection artefacts. Apparent affinities for the OX40L-antibody interaction were determined using the 1:1 model inherent to the ProteOn XPR36 analysis software. The assay was run using HBS-EP (Teknova) as running buffer and carried out at 25° C.

[4] = biological target: T1, recombinant human OX40L (extracellular …); assay: HTRF ligand/receptor neutralisation; competitor OX40RFc-AF647 on biotinylated hOX40L; mean of three experiments, SEM +/-0.17
Procedure: as §1

IC50 [1] | Primary T-cell Assay IC50 nM (recombinant OX40L induced IL2 release from primary isolated T-cells) [2] | Kd [3] | IC50 [4] | Binder
0.75 nM | 0.81 nM | – | – | 2D10 (human) (antibody, human IgG4 S228P, kappa, V domains shown, Recombinant fully human IgG4-PE (Ser228Pro, Leu235Glu) with a human kappa light chain; also called 02D10; 2D10 IgG4PE) VH: EVQLVESGGGLVQPGGSLRLSCAASGFTFSNYAMNWVRQAPGKGLEWVSTISGSGGATRYADSVKGRFTISRDNSRNTVYLQMNSLRVEDTAVFYCTKDRLIMATVRGPYYYGMDVWGQGTTVTVSS VL: DIQMTQSPSSLSASVGDRVTITCRASQSISSYLNWYQQKPGKAPNLLIYAASSLQSGVPSRFSGSGSETDFTLTISSLQPEDFATYYCQQSHSVSFTFGPGTKVDIKR
– | – | 2.2 nM | – | 19H01 (hybridoma) (antibody, V domains shown, Murine/human chimeric antibody purified from hybridoma supernatant (human variable domains, mouse constant regions)) VH: not shown VL: DIQMTQSPSSLSASVGDRVTITCRASQGISNYLAWYQQKPGKIPKLLIYAASTLQSGVPSRFSGSGSGTDFTLTISSLQPEDVATYYCQKYNSAPRTFGQGTKVEIK
– | 0.83 nM | – | 1.2 nM | 10A07 (human) (antibody, V domains shown, also called 10A7; mAb 10A7) VH: EVQLVESGGVLVQPGGSLRLSCAASGFTFSSYIMTWVRQAPGKGLEWVSGISGSGGGTYYADSMKGRFTISRDNSKNTLYLQMNSLRVEDTAVYYCAKDRLGPITLVRGGYYYGMDVWGQGTTVTVSS VL: DIQMTQSPSSLSASVGDRVTITCRASQSISDYLNWYQQKPGKAPKFLIYAASSLQSGVPSRFSGSGSGTDFTLTVSSLQPEDFATYYCQQSYSTPRTFGQGTRVEIK
– | – | 5.3 nM | – | 9H04 (hybridoma) (antibody, V domains shown, Murine/human chimeric antibody purified from hybridoma supernatant (human variable domains, mouse constant regions); also called 09H04) VH: QVQLVESGGGLVKPGGSLRLSCAASRFTLSDYYMTWIRQAPGKGLEWVSYISSSGNTIYYADSVKGRFTISRDNAKNSLYLQMNSLRAEDTAVYYCARDLSGSYWDYYYGMDVWGQGTTVTVSS VL: AIQLTQSPSSLSTSVGDRVTIACRASQGINNALAWYQQKPGKAPKLLIYDASSLESGVPSRFSGSGSGTDFTLTISSLQPEDFATYYCQQFNSYPRTFGQGTKVEIK
